The text below walks through data of US20230331848A1 (BIOSION, published 2023).

In assay [1] the target is T1, human PD-1-his protein prepared in-house (human, UniProt Q15116 25-167, biotin-labeled (sites not given)).
T1 construct: also called biotin labeled human PD-1-his
Briefly: competitive ELISA: biotin human PD-1-his + antibody on coated Pembrolizumab (competitor). The method, then:
ELISA plates were washed once with wash buffer (PBST, PBS+0.05% Tween-20) and then blocked with 200 μl/well blocking buffer (5% w/v non-fatty milk in PBST) for 2 hours at 37° C. […] After incubation at 37° C. for 40 minutes, plates were washed using wash buffer, added and incubated with 100 μl/well Peroxidase Streptavidin for 40 minutes at 37° C. Plates were washed again using wash buffer. Finally, TMB was added and the reaction was stopped using 1M H₂SO₄. The absorbance was read on a microplate reader using dual wavelength mode with 450 nm for TMB and 630 nm as the reference wavelength, and the OD (450-630) values were plotted against antibody concentrations. Data was analyzed using Graphpad Prism software and IC₅₀ values were reported.

The target in assay [2] is T2, human PD-1 expressed on GS-J2/PD-1 cells (Genscript) (human, UniProt Q15116 25-288).
T2 construct: whole, on cells; also called cell-surface human PD-1
Briefly: flow cytometry on GS-J2/PD-1 cells. The method, then:
In specific, the 293F-mouse PD-1 cells and GS-J2/PD-1 cells were respectively harvested from cell culture flasks, washed twice and re-suspended in PBS containing 2% v/v Fetal Bovine Serum (FACS buffer). Then, 2×10⁵ cells per well were incubated in 96 well-plates with 100 μl of the anti-PD1 antibodies or controls at various concentrations for 40 minutes on ice. […] Following an incubation of 40 minutes at 4° C. in dark, cells were washed three times and re-suspended in FACS buffer. Fluorescence was measured using a Becton Dickinson FACS Canto II-HTS equipment and plotted against antibody concentrations. Data was analyzed using GraphPad Prism software and EC₅₀ values were reported.
For the cell-based binding FACS, R-Phycoerythrin AffiniPure Goat Anti-human IgG Fcγ fragment specific (Cat#:109-115-098, Jackson ImmunoResearch) was used for the humanized antibodies, with 1:1000 dilution in FACS buffer, 100 μl/well.
In general terms: Flow cytometry measures light scatter and fluorescence of single cells or particles in a stream.

For assay [3], the target named is T1, human PD-1-his protein prepared in-house. Briefly: capture ELISA, antibody captured, biotin human PD-1-his detected. The method, then: Briefly, 96-well micro plates were coated with 100 μl 2 μg/ml AffiniPure Goat Anti-Mouse IgG F(ab′)₂ fragment specific (Cat#:115-005-072, Jackson lmmunoResearch) or Goat-anti-human IgG (Cat#:109-005-097, Jackson ImmunoResearch, for the positive control and negative control) in PBS overnight at 4° C. Plates were washed once with wash buffer (PBST, PBS+0.05% Tween-20) and then blocked with 200 μl/well blocking buffer (5% w/v non-fatty milk in PBST) for 2 hours at 37° C. […] After a final wash, plates were incubated with 100 μl/well TMB (Cat#:TMB-S-002, Innoreagents) at room temperature.
For the capture ELISA, 96-well plates were coated with 100 μl 2 μg/ml AffiniPure Goat Anti-Human IgG, Fcγ fragment specific (Cat#:109-005-098, Jackson Immunoresearch) instead of AffiniPure goat-anti-mouse IgG F(ab′)₂ fragment specific.

Assay [4] has as its target T3, human PD-1-his protein (Cat#:PD1-H5221, Acro biosystems Inc.) (human, UniProt Q15116 25-167).
T3 construct: not shown: his tag
Briefly: BLI (Octet RED96), supernatant antibody captured on AHC sensor, human PD-1-his in solution, 1:1 fit. The method, then:
Briefly, AHC biosensors (anti-human IgG Fe capture, from ForteBio) were presoaked with 10 mM glycine (pH 1.5) for 3 seconds, and then dipped in a well with running buffer (0.5% w/v BSA in PBST) for 3 seconds, the soaking and dipping steps were repeated for three times. […] A new baseline was run for 100 seconds in another well with running buffer. Then the sensors were dipped in a well with serially diluted human PD-1-his protein (Cat#:PD1-H5221, Acro biosystems Inc., starting at 100 nM with a two-fold serial dilution) in running buffer for 120 seconds, and then immersed in a baseline well for […]. Finally, sensors were presoaked with 10 mM glycine (pH 1.5) for 30 seconds, and then were dipped in a well with running buffer for 30 seconds. The association and dissociation curves were fit to a 1:1 Langmuir binding model using ForteBio Data Analysis 8.1 evaluation software.
(In BLI a coated tip is dipped into the sample, and binding shifts an interference pattern.)

Assay [5] deals with T2, human PD-1 expressed on GS-J2/PD-1 …. Briefly: cell-based or functional assay.
For assay [6], the target named is T4, recombinant human PD-1-his protein (Cat#:10377-H08H, Sino biological Inc.) (human, UniProt Q15116 25-167).
T4 construct: Bought protein used as analyte in the Biacore tests; not shown: his tag
The experiment in a line: SPR (Biacore), Example 9.

For assay [7], the target named is T5, cynomolgus PD-1-his protein (Cat#:PD1-05223, Acro biosystems Inc.) (cynomolgus, UniProt B0LAJ3 25-170).
T5 construct: Bought protein used in Biacore and indirect ELISA; also called monkey PD-1; Cyno PD-1
The experiment in a line: SPR (Biacore), Example 9. (SPR reads the build-up and loss of mass on a sensor chip optically.)

Assay [8] deals with T6, in house made human PD-1-Fc protein (human, biotin-labeled (sites not given)).
T6 construct: also called biotin-labeled human PD-1-Fc
The experiment in a line: blocking FACS: biotin human PD-1-Fc + antibody on GS-C2/PD-L1 cells (competitor: cell-surface human PD-L1). The method, then: GS-C2/PDL1 cells were harvested from cell culture flasks at the log phase, washed twice and re-suspended in PBS containing 2% v/v Fetal Bovine Serum (FACS buffer). GS-C2/PD-L1 cells, 0.6×10⁵ cells per welt, were incubated in 96 well-plates with 100 the antibody/PD1-Fc mixture for 40 minutes at 4° C. Cells were washed twice with FACS buffer, added with 100 R-Phycoerythrin Streptavidin (1:500 dilution in FACS buffer, Cat#:016-110-084, Jackson Immunoresearch), and incubated for 40 minutes at 4° C. in dark. Cells were washed twice and re-suspended in FACS buffer. Fluorescence was measured using a Becton Dickinson FACS Canto II-HTS equipment. Data was analyzed using Graphpad Prism software and IC₅₀ values were reported.

The target of assay [9] is T6, in house made human PD-1-Fc protein. Briefly: competitive ELISA: biotin human PD-1-Fc + antibody on coated human PD-L1-Fc (competitor). As to the method: Briefly, 100 μl human PD-L1-Fc protein (prepared in-house with SEQ ID NO: 28) at 2 μg/mL in carbonate/bicarbonate buffer (pH 9.6) was coated on 96-well micro plates overnight at 4° C., Plates were washed with wash buffer (PBS+0.05% w/v Tween-20, PBST), and blocked with 5% w/v non-fatty milk in PBST for 2 hours at 37° C. […] After incubation at 37° C. for 40 minutes, plates were washed using wash buffer. […] Plates were washed again using wash buffer. Finally, TMB was added and the reaction was stopped using 1M H₂SO₄. The absorbance was read on a microplate reader using dual wavelength mode with 450 nm for TMB and 630 nm as the reference wavelength, then the OD (450-630) values were plotted against antibody concentrations. Data was analyzed using Graphpad Prism software and IC₅₀ values were reported.

Assay [10] concerns the target T7, recombinant mouse PD-1-his protein (Cat#:50124-M08H, Sino Biological Inc) (mouse, UniProt Q02242 25-167).
T7 construct: Bought protein used in Biacore and indirect ELISA; not shown: his tag
T7 sequence (looked up): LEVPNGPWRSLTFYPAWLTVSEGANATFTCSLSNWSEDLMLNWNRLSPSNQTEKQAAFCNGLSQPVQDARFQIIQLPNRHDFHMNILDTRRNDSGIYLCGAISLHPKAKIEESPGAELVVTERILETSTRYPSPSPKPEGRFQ
The experiment in a line: SPR (Biacore), Example 9.

Assay [11] has as its target T5, cynomolgus PD-1-his protein …. The experiment in a line: indirect ELISA on coated cynomolgus PD-1-his.
The target in assay [12] is T2, human PD-1 expressed on GS-J2/PD-1 …. Briefly: cell-based binding FACS on GS-J2/PD-1 cells expressing human PD-1 (MFI); unit from the axis 'Con of mAb, nM.'.

B1: humanized antibody huE1A9C8A7-V8 (antibody, human IgG4 S228P, kappa, V domains shown)
VH: QVQLVQSGAEVVKPGASVKISCKASGYTFTDYVMHWVRQAPGQSLEWMGVISTYHIPAVYNQKFKGKATMTVDTSTSTVYLELSSLRSEDTAVYYCAREVYGDSYYFDVWGQGTTVTVSS
VL: DIVMTQTPLSLPVTPGEPASISCRSSQSIVHSNGNTYLEWYLQKPGQSPQLLIYKVSNRFSGVPDRFSGSGSGTDFTLKISRVEAEDVGVYYCFQGSHVPYTFGGGTKVEIKR
notes: Human IgG4/kappa
As a reminder, the IC50 is the midpoint of a concentration-inhibition curve. As a reminder, the EC50 is the concentration that produces a half-maximal response. As a reminder, the Kd is a measure of binding affinity in units of concentration. A word on the koff: it is a measure of how fast the partners let go of each other. Usually kon stands for a measure of how fast the partners come together. As to B1, the values for the IC50 in assay [1], in [8] and in assay [9] were 0.51 nM, 0.55 nM and 0.33 nM, respectively. The EC50 was 0.63 nM in [2], 0.21 nM in assay [3], 0.82 nM in [11] and 0.461 nM in [12]. Further, the Kd in assay [4] is 1.13 nM; in assay [6] it was 0.634 nM; in [7], 1.34 nM; in assay [10] it was 380 nM. Also, the koff is 0.000291 s⁻¹ in assay [4], 0.000593 s⁻¹ in assay [6], 0.000484 s⁻¹ in assay [7] and 0.0182 s⁻¹ in assay [10]. Also, the kon in assay [4] is 258000 M⁻¹ s⁻¹; in assay [6] it was 934000 M⁻¹ s⁻¹; in [7] it was 361000 M⁻¹ s⁻¹; in assay [10], 47900 M⁻¹ s⁻¹. The “Cell-based functional assay (EC50, nM)” value in [5] was 5.13 nM.
